22 molecules from patent US20210181204A1 (SYNGENTA PARTICIPATIONS, published 2021) can be followed below.

Substitutions are numbered along the chain they refer to. Names may count otherwise.

In assay [1] the target is T1, Cry1Ab insecticidal protein (Bacillus thuringiensis, UniProt P0A370 1-615). Briefly: Bio-Layer Interferometry, target 15.6 nM to 1 uM.
Assay [2] concerns the target T1, Cry1Ab insecticidal protein. Briefly: direct ELISA, coated protein, SA-AP, 405 nm. On the technique in general: ELISA stands for enzyme-linked immunosorbent assay.
The target of assay [3] is eCry3.1Ab hybrid insecticidal protein. The assay can be described thus: direct ELISA, coated protein, SA-AP, 405 nm.
The target in assay [4] is Cry1Aa insecticidal protein (Bacillus thuringiensis subsp. aizawai, UniProt P0A367 12-1176). Briefly: direct ELISA, coated protein, SA-AP, 405 nm.
Assay [5] concerns the target Cry1Ai insecticidal protein. Briefly: direct ELISA, coated protein, SA-AP, 405 nm.
Assay [6] deals with Cry1Ab.1Ca insecticidal protein. Briefly: direct ELISA, coated protein, SA-AP, 405 nm.
The target of assay [7] is T2, mCry3A insecticidal protein (Bacillus thuringiensis subsp. …, UniProt P0A379 48-644, limits assumed).
T2 construct: also called modified Cry3A
T2 sequence: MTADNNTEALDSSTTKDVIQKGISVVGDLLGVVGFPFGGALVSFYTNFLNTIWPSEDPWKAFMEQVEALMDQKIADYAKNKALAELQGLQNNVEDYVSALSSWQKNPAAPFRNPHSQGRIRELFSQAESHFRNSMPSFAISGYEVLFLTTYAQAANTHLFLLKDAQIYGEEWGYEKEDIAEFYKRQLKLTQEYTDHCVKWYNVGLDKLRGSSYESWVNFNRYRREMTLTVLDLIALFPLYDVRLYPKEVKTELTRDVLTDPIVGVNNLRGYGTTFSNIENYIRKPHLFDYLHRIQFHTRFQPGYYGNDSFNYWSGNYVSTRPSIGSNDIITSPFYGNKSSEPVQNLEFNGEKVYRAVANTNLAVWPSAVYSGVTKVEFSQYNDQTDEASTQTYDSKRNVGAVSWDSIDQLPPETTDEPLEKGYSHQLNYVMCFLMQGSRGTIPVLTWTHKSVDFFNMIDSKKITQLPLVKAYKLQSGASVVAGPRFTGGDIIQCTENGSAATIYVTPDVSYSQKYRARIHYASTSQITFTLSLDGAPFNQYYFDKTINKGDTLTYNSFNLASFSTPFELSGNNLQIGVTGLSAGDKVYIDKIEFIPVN
Briefly: direct ELISA: protein coated at 500 ng/ml, 10 nM tagged synNAPS with SA-AP.

Assay [8] has as its target eCry3.1Ab hybrid insecticidal protein. The assay can be described thus: Bio-Layer Interferometry, target 15.6 nM to 1 uM. (In general: In BLI a coated tip is dipped into the sample, and binding shifts an interference pattern.)
Assay [9] addresses T2, mCry3A insecticidal protein. Briefly: direct ELISA, coated protein, SA-AP, 405 nm.
The target of assay [10] is T1, Cry1Ab insecticidal protein. The assay can be described thus: direct ELISA: protein coated at 500 ng/ml, 10 nM tagged synNAPS with SA-AP.
The target of assay [11] is Cry1Ai insecticidal protein. Described as above.
Assay [12] has as its target T2, mCry3A insecticidal protein. The assay can be described thus: Bio-Layer Interferometry, target 15.6 nM to 1 uM.
For assay [13], the target named is T1, Cry1Ab insecticidal protein. The assay can be described thus: direct ELISA on coated Cry1Ab, RGS-His HRP.
Assay [14] shares this target. Briefly: direct ELISA: Cry1Ab coated at 1 ug/ml, RGS-His HRP detection.
Assay [15] addresses T2, mCry3A insecticidal protein. Briefly: direct ELISA on coated mCry3A.
For assay [16] the target is unchanged. Briefly: direct ELISA: mCry3A coated at 1 ug/ml, RGS-His HRP detection.

B1: synNAPS-3 ligand (designed binder)
chain: MVKVKFRWGGEEKEVDTSKIWYVARVGKWVLFGYDDNGKRGAGRVREKDAPKELLDMLARAEREKK
With B1, the binding result in assay [1] is reported as “binds”.

B2: synNAPS-8tag ligand (designed binder)
chain: MRGSHHHHHHGSVKVKFHGRGEEKEVDTSKIFWVYRDGKRVLFRYDDNGKRGFGSVPEKDAPKELLDMLARAEREKKLGSGLNDIFEAQKIEWH
modifications: chain 1: biotinylated in vivo on the C-terminal avidin-tag (E. coli BirA strain). The patent does not name the residue; it is presumably the tag's Lys, pos 90, written K.
notes: also called tagged synNAPS 8
Regarding B2, the binding result in [2], in assay [3], in [4], in [5] and in assay [6] was “no binding (tested: 10 nM)” in each case. Moreover, the “Binding to Insecticidal Protein (read at 405 nm)” value (“Binding to Insecticidal Protein” for short) in assay [7] came to 1.6 absorbance 405 nm.

B3: synNAPS-11 ligand (designed binder)
chain: MVKVKFGLGGEEKEVDTSKIRRVLRLGKLVSFTYDDNGKIGLGDVHEKDAPKELLDMLARAEREKK
Turning to B3, in assay [8], the binding result is “binds”.

B4: synNAPS-3tag ligand (designed binder)
chain: MRGSHHHHHHGSVKVKFRWGGEEKEVDTSKIWYVARVGKWVLFGYDDNGKRGAGRVREKDAPKELLDMLARAEREKKLGSGLNDIFEAQKIEWH
modifications: in vivo biotinylation (E. coli BirA strain) on the C-terminal avidin-tag
notes: also called tagged synNAPS 3
Turning to B4, the binding result in [3], in assay [9], in assay [4] and in assay [6] was “no binding (tested: 10 nM)” in each case. The “Binding to Insecticidal Protein” value in [10] worked out at 0.75 absorbance 405 nm; in [11], 1.5 absorbance 405 nm.

B5: synNAPS-12 ligand (designed binder)
chain: MVKVKFKLTGEEKEVDTSKIQWVARFGKFVDFLYDDNGKTGWGWVYEKDAPKELLDMLARAEREKK
As to B5, the binding result in [8] was “binds”.

B6: synNAPS-6 ligand (designed binder)
chain: MVKVKFMRWGEEKEVDTSKITYVTRWGKTVIFYYDDNGKKGHGSVLEKDAPKELLDMLARAEREKK
Turning to B6, the binding result in [12] was “binds”.

B7: synNAPS2 variant R44A (designed binder)
chain: RGSHHHHHHGSMVKVKFKYKGEEKEVDTSKIVWIGRFGKSVYFRYDDNGKTGAGAVYEKDAPKELLDMLARAEREKK
Consider B7, for which the binding result in [13] was “no binding”. For the same molecule, the “Binding (OD 450 nm)” value in assay [14] came out at 0 OD 450 nm.

B8: synNAPS2 variant W22A (designed binder)
chain: B7 chain with W33A, A55R
For the molecule B8, the binding result in [13] is on record as “no binding”. Moreover, the “Binding (OD 450 nm)” value in assay [14] is 0 OD 450 nm.

B9: synNAPS2 variant S29A (designed binder)
chain: B7 chain with S40A, A55R
Turning to B9, the binding result in assay [13] is recorded as “no binding”. Besides, the “Binding (OD 450 nm)” value in assay [14] is 0 OD 450 nm.

B10: synNAPS2 variant Y31A (designed binder)
chain: B7 chain with Y42A, A55R
For the molecule B10, the binding result in [13] is “no binding”. Besides, the “Binding (OD 450 nm)” value in assay [14] was found to be 0 OD 450 nm.

B11: synNAPS-4 ligand (designed binder)
chain: MVKVKFKYKGEEKEVDTSKISYVQRAGKSVYFNYDDNGKTGGGRVFEKDAPKELLDMLARAEREKK
For B11, the binding result in assay [1] is on record as “binds”.

B12: synNAPS-7 ligand (designed binder)
chain: MVKVKFKVHGKEKEVDTSKILAVARWGKAVIFAYDDNGKHGRGQVSEKDAPKELLDMLARAEREKK
Take B12: the binding result in assay [12] is on record as “binds”.

B13: synNAPS-6tag ligand (designed binder)
chain: MRGSHHHHHHGSVKVKFMRWGEEKEVDTSKITYVTRWGKTVIFYYDDNGKKGHGSVLEKDAPKELLDMLARAEREKKLGSGLNDIFEAQKIEWH
modifications: in vivo biotinylation (E. coli BirA strain) on the C-terminal avidin-tag
notes: also called tagged synNAPS 6
B13: the binding result in [2], in assay [3], in [4], in [5] and in assay [6] was “no binding (tested: 10 nM)” each time. Further, the “Binding to Insecticidal Protein” value in assay [7] amounted to 1.1 absorbance 405 nm.

B14: synNAPS-5 ligand (designed binder)
chain: MVKVKFVLKGEEKEVDTSKITYVARYGKFVQFDYDDNGKFGAGVVLEKDAPKELLDMLARAEREKK
Consider B14, for which the binding result in assay [1] is listed as “binds”.

B15: synNAPS-14 ligand (designed binder)
chain: MVKVKFKYKGEEKEVDTSKIIFVYRFGKFVMFIYDDNGKTGHGDVREKDAPKELLDMLARAEREKK
With B15, the binding result in [8] was “binds”.

B16: synNAPS-1 ligand (designed binder)
chain: MVKVKFGPWGEEKEVDTSKIVDVWRWGKYVDFFYDDNGKVGIGSVTEKDAPKELLDMLARAEREKK
On to B16, for which the binding result in assay [1] was “binds”.

B17: synNAPS9 variant Q8A (designed binder)
chain: RGSHHHHHHGSMVKVKFAAGGEEKEVDTSKIYRVPRHGKIVFFMYDDNGKGGFGHVTEKDAPKELLDMLARAEREKK
Regarding B17, the “binding affinity as percent of SEQ ID NO:17” value in assay [15] was around 112%. For the same molecule, the “Binding (OD 450 nm)” value in [16] turned out to be 2.8 OD 450 nm.

B18: synNAPS9 variant T46A (designed binder)
chain: B17 chain with A19Q, T57A
As to B18, in assay [15], the “binding affinity as percent of SEQ ID NO:17” value was around 112%. In addition, in [16], the “Binding (OD 450 nm)” value was determined as 2.8 OD 450 nm.

B19: synNAPS9 variant M33A (designed binder)
chain: B17 chain with A19Q, M44A
For B19, the “binding affinity as percent of SEQ ID NO:17” value in assay [15] is around 112%. The “Binding (OD 450 nm)” value in assay [16] turned out to be 2.8 OD 450 nm.

B20: synNAPS-10 ligand (designed binder)
chain: MVKVKFLMKGEEKEVDTSKIKWVNRHGKYVAFYYDDNGKTGGGEVREKDAPKELLDMLARAEREKK
Turning to B20, in assay [8], the binding result is given as “binds”.

B21: synNAPS-7tag ligand (designed binder)
chain: MRGSHHHHHHGSVKVKFKVHGKEKEVDTSKILAVARWGKAVIFAYDDNGKHGRGQVSEKDAPKELLDMLARAEREKKLGSGLNDIFEAQKIEWH
modifications: in vivo biotinylation (E. coli BirA strain) on the C-terminal avidin-tag
notes: also called tagged synNAPS 7
Regarding B21, the binding result in assay [2], in assay [3], in assay [4], in [5] and in [6] was “no binding (tested: 10 nM)” in each case. Moreover, the “Binding to Insecticidal Protein” value in assay [7] is 0.7 absorbance 405 nm.

B22: synNAPS-8 ligand (designed binder)
chain: MVKVKFHGRGEEKEVDTSKIFWVYRDGKRVLFRYDDNGKRGFGSVPEKDAPKELLDMLARAEREKK
As to B22, the binding result in [12] is “binds”.
